Source: patent publication US8796209B2, “Compositions and methods related to anti-FGF agents” (The Regents of the University of California, priority 2005, dated 2014)
Where a chain is given by its changes, count along the chain named. Entries after “also recorded” stand apart in the source; their conditions may differ.

B1: 4xE: FGF-1 mutant, Lys127/Lys128/Lys133/Arg134 simultaneously to Glu (protein)
chain: FNLPPGNYKKPKLLYCSNGGHFLRILPDGTVDGTRDRSDQHIQLQLSAESVGEVYIKSTETGQYLAMDTDGLLYGSQTPNEECLFLERLEENHYNTYISKKHAEKNWFVGLEENGSCEEGPRTHYGQKAILFLPLPVSSD
B2: 3xA: FGF-1 mutant, three residues in the FGFR binding site (Glu102/Tyr109/Asn110) to Ala (protein)
chain: B1 chain with E87A, Y94A, N95A, E112K, E113K, E118K, E119R

Assays:
integrin αvβ3 = biological target: T1, integrin αvβ3 (Homo sapiens, UniProt P05106+P06756); assay: Soluble integrin binding assay (ELISA-type), soluble αvβ3 on immobilized FGF; conditions: for effect of the mutation on binding of soluble αvβ3 to FGF-1: mutant coated to plate; for αvβ3 binding: phenotype of FGF-1 mutants, Table 2
T1 construct: using the soluble αv and β3 expression constructs provided by Tim Springer; made in house; host or cells: CHO K1
Procedure: Wells of 96-well microtiter plates were coated with 10 μg/ml FGF-1 or FGF-2 and remaining protein binding sites were blocked with 1 mg/ml BSA. Recombinant soluble αvβ3 (50 μl/well at 5 μg/ml in Hepes-Tyrode buffer supplemented with 1 mM MnCl2) was added to wells and incubated for 1 h at room temperature. Soluble αvβ3 was incubated with 10 μg/ml 7E3 (white bar) or mouse IgG (black bar) for 10 min on ice prior to adding to the wells. BSA (circle) was used as a negative control. Data is shown as means+/−SD of triplicate experiments.
FGF-1 (10 μg/m) was heat-treated at indicated temperature for 10 min prior to immobilization. Binding of soluble αvβ3 was determined as described in FIG. 1. Data is shown as percent binding+/−SD of triplicate experiments.
Amino acid residues in the integrin-binding site or in the FGFR-binding site were mutated individually or in groups. Wild-type (diamond), R50E (open square), N33A (closed square), 4xE (circle), 3xA (triangle) were coated to a plastic plate various concentration as indicated and the binding of soluble αvβ3 was determined as described in FIG. 2. BSA (cross) was used as a negative control. […] “4xE” represents the K127E/K128E/K133E/R134E mutant. “3xA” represents the E102A/Y109A/Q110A mutant.
Binding assays were performed as previously described (Takagi et al., 2001). Native or heat-denatured FGF-1 in 0.1 M carbonate buffer, pH 9.4, were incubated in a polystyrene 96-well non-tissue culture plates surface overnight at 4° C. Unbound FGF-1 was removed, and 200 μl of 0.1% bovine serum albumin in PBS was added and incubated for 60 min at room temperature. The wells were washed with PBS and soluble integrin αvβ3 in 50 μl in Hepes-Tyrode buffer supplemented with 1 mM Mn^2+ were added to the wells and incubated at room temperature for 60 min. After non-bound soluble integrin were removed by rinsing the wells with the same buffer. Horseradish peroxidase (HRP) conjugated anti His-tag mouse IgG was added to well and incubated 60 min. Non-bound antibodies were removed by rinsing the wells with the same buffer, bound integrins were quantified by measuring the absorbance of 450 nm developed from adding the substrate (3,3′,5,5′-tetramethylbenzidine) of HRP unbound protein was aspirated, and the wells were washed with PBS three times.

[1] = Heparin binding assay (heparin sepharose column, NaCl step elution); conditions: for Heparin binding: phenotype of FGF-1 mutants, Table 2
Procedure: (§1) Partially purified wt and mutant FGF1 in 100 mM NaCl and 50 mM Tris (pH 7.4) were applied to a heparin sepharose column (1 ml bed volume). The column was washed with the same buffer and bound proteins were eluted with a stepwise increase in NaCl concentration from 0.1 to 1.2 M. Fractions were analyzed by SDS-polyacrylamide gradient gel electrophoresis. Proteins were visualized by Coomassie Brilliant Blue staining.
as §1, with “Wild type” for “Partially purified wt”, “FGF-1” for “FGF1”, “Tris/HCI” for “Tris”, “to” for “to a”, “with” for “with the”, “buffer,” for “buffer”

Balb 3T3 cells = assay: DNA synthesis by BrdU incorporation; assay type: cell-based, mouse; conditions: for effect of the mutation on FGF-1 induced BrdU incorporation: 5 ng/ml, 5 μg/ml heparin, 24 h; for DNA synthesis: phenotype of FGF-1 mutants, Table 2
Procedure: Balb 3T3 cells were plated on cover slips in 6-well culture plates, serum starved (DMEM, 0.4% fetal calf serum) for 48 h, and stimulated with 5 ng/ml wild-type and mutant FGF-1s in the presence of 5 μg/ml heparin for 24 h. BrdU was added to the medium for the last 6 h of the incubation. Cells were fixed and incubated with anti BrdU antibody. BrdU incorporated cells were stained with DAB. The mean value of BrdU positive cells from wild type-treated culture was set to 100%, and the corresponding results from mutant-treated cultures were scaled accordingly. Results are shown as means±S.D. Asterisks indicate significant differences (p<0.05) compared with wild type treatment.
DNA synthesis was measured by BrdU incorporation. Balb 3T3 cells were plated on sterile cover slips in 6-well culture plates and serum starved in DMEM supplemented with 0.4% fetal calf serum for 48 h, and stimulated with 5 ng/ml wild type and mutant FGF-1s for 24 h in the presence and absence of 5 μg/ml heparin. BrdU (10 μg/ml) was added to the medium for the last 6 h of the incubation. Cells were then fixed with 70% ethanol and incubated with 2N HCI. After the medium was neutralized with 0.1 M borate buffer (pH 8.5), the cells were incubated with anti-BrdU antibody (BD PharMingen, San Diego, Calif.). BrdU incorporated cells were stained with HRP conjugated secondary antibody (Biorad) and metal enhanced diaminobenzidine substrate kit (Pierce, Rockford, Ill.). Diaminobenzidine positive and negative cells were counted from the digital images of three independent fields.

ERK1/2 = assay: MAP kinase (ERK1/2) activation, western blot; assay type: cell-based, mouse; conditions: for ability to induce ERK1/2 activation: 5 ng/ml, 10 min, with or without 5 μg/ml heparin; for ERK1/2 activation: phenotype of FGF-1 mutants, Table 2
Procedure: Serum starved Balb3T3 cells were stimulated with wild-type and mutant FGF-1s (5 ng/ml) in the presence or absence of 5 μg/ml heparin for 10 min at 37° C. Cell lysates were analyzed by western blotting with anti-phospho ERK1/2 (anti phospho-ERK). Total amount of ERK1/2 in each lane was determined by blotting with anti-ERK1/2. Controls contain medium alone (none) or medium containing 10% fetal calf serum (FCS).
Balb3T3 cells were grown to confluence and serum starved in DMEM supplemented with 0.4% fetal calf serum for 24 h, and stimulated with wild type and mutant FGF-1 (5 ng/ml) in the presence or absence of 5 μg/ml heparin for 10 min at 37° C. Cells were washed twice with ice-cold PBS and lysed with the lysis buffer (20 mM Tris-HCI pH 8.0, 120 mM NaCl, 5 mM EDTA, 0.5% Triton-X100, 1 mM PMSF, 1 mM DTT, 10 mM NaF, 1 mM Na3VO4, 10 μg/ml aprotinin). Cell lysates were separated on 4-12% NuPAGE Bis-Tris Gel (invitrogen). Proteins were then transferred to PVDF membranes (Milli-pore), probed with antibodies, and bound antibodies were detected by HRP-conjugated anti-mouse IgG and chemiluminescence HRP substrate (Pierce). The antibodies used were anti-phospho-ERK1/2, anti-ERK1/2 (Cell Signaling Technology).

T1 sequence (P06756 31-992 limits assumed): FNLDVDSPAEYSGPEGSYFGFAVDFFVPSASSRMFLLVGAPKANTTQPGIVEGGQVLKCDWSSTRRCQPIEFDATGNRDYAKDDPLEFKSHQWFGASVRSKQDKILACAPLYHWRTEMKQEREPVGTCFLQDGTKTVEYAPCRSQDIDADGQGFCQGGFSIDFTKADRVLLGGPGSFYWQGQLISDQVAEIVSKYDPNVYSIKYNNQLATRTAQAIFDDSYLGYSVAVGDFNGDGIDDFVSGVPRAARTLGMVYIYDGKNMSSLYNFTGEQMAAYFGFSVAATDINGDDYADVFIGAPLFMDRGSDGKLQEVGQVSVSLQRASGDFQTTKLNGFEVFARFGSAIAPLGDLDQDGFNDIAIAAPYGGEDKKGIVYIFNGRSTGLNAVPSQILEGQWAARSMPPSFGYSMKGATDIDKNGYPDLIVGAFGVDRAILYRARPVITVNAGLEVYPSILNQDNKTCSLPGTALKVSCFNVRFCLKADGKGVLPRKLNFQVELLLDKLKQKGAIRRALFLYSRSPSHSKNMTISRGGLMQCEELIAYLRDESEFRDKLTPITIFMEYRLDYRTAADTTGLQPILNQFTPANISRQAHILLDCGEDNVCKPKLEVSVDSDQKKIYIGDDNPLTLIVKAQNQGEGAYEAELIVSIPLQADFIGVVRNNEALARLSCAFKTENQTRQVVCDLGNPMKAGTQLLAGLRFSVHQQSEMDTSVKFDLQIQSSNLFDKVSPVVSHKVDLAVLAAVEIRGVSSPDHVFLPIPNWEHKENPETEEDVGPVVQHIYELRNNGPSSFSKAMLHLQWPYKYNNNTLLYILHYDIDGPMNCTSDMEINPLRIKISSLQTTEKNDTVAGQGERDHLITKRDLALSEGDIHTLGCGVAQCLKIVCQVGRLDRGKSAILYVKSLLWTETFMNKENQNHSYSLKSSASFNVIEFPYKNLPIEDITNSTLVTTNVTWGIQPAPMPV
T1 sequence (P05106 27-718 limits assumed): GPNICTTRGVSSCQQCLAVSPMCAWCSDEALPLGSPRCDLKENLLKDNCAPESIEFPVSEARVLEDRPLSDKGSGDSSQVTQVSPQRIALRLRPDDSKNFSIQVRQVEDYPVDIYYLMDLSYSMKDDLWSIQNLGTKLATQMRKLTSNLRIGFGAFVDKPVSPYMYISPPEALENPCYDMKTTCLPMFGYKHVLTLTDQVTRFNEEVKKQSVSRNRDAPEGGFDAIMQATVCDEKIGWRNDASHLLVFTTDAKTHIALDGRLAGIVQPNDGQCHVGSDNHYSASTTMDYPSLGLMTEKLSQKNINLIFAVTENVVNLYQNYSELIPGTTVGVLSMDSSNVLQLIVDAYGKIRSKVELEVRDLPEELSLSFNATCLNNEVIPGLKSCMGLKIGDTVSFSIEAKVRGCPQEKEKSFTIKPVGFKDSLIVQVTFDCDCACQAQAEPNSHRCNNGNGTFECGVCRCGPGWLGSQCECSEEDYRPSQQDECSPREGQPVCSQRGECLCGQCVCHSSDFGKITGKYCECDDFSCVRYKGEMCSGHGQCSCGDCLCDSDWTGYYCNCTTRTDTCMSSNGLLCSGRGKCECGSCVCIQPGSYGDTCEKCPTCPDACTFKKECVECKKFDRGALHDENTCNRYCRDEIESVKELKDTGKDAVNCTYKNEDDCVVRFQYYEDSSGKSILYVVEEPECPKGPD

Molecule	effect of the mutation on binding of soluble αvβ3 to FGF-1 (integrin αvβ3)	αvβ3 binding (integrin αvβ3)	effect of the mutation on heparin binding to FGF-1 [1]	Heparin binding [1]	effect of the mutation on FGF-1 induced BrdU incorporation (Balb 3T3 cells)	DNA synthesis (Balb 3T3 cells)	ability to induce ERK1/2 activation (ERK1/2)	ERK1/2 activation (ERK1/2)	binding of soluble αvβ3 to the immobilized protein (integrin αvβ3; coated at 10 μg/ml, soluble αvβ3 5 μg/ml, 1 mM MnCl2)	binding of soluble αvβ3 to heat-denatured protein (integrin αvβ3; heat-denatured, heat-treated 10 min before immobilization)
R50E: FGF-1 mutant with the Arg-50 to Glu (R50E) mutation	blocked the binding; also recorded: effectively blocked	Low	did not	Normal	significantly blocked	Low	much less ability	Low	–	–
Wild type: human FGF-1 (acidic FGF), wild type, expressed in E. coli	–	Normal	–	Normal	–	Normal	–	Normal	bound	did not bind
B1	effectively blocked	Low	completely blocked	Low	significantly blocked	Low	did not induce ERK1/2 activation at all	Low	–	–
B2	did not affect	Normal	did not	Normal	also blocked	Low	did not show ERK1/2 activation	Low	–	–
